Reference: US20140294898A1 (published 2014)
Positions of bridges follow the written chain, without caps; N, C: chain ends. Non-standard residues stand in square brackets, D forms with d. NMeNle = CCCC[C@H](NC)C(=O)O; αMeP = C[C@@]1(C(=O)O)CCCN1; NMeA = CN[C@@H](C)C(=O)O; dNMeA = CN[C@H](C)C(=O)O; Aze = O=C(O)[C@@H]1CCN1; Sar = CNCC(=O)O

B1: Compound No. 49 (peptide)
peptide: {CH2CO}-F[NMeA]N[αMeP]HL[Sar]WSW[NMeNle][NMeNle]RCG-NH2
modifications: thioether N-14
SMILES: CCCC[C@H]1C(=O)N(C)[C@@H](CCCC)C(=O)N[C@@H](CCCNC(=N)N)C(=O)N[C@H](C(=O)NCC(N)=O)CSCC(=O)N[C@@H](Cc2ccccc2)C(=O)N(C)[C@@H](C)C(=O)N[C@@H](CC(N)=O)C(=O)N2CCC[C@@]2(C)C(=O)N[C@@H](Cc2c[nH]cn2)C(=O)N[C@@H](CC(C)C)C(=O)N(C)CC(=O)N[C@@H](Cc2c[nH]c3ccccc23)C(=O)N[C@@H](CO)C(=O)N[C@@H](Cc2c[nH]c3ccccc23)C(=O)N1C
B2: Compound No. 5 (peptide)
peptide: {CH2CO}-A[NMeA]NPHL[Sar]WSW[NMeNle][NMeNle]RCG-NH2
modifications: thioether N-14
SMILES: CCCC[C@H]1C(=O)N(C)[C@@H](CCCC)C(=O)N[C@@H](CCCNC(=N)N)C(=O)N[C@H](C(=O)NCC(N)=O)CSCC(=O)N[C@@H](C)C(=O)N(C)[C@@H](C)C(=O)N[C@@H](CC(N)=O)C(=O)N2CCC[C@H]2C(=O)N[C@@H](Cc2c[nH]cn2)C(=O)N[C@@H](CC(C)C)C(=O)N(C)CC(=O)N[C@@H](Cc2c[nH]c3ccccc23)C(=O)N[C@@H](CO)C(=O)N[C@@H](Cc2c[nH]c3ccccc23)C(=O)N1C
B3: Compound No. 17 (peptide)
peptide: {CH2CO}-F[NMeA]NPHL[Sar]WSA[NMeNle][NMeNle]RCG-NH2
modifications: thioether N-14
SMILES: CCCC[C@H]1C(=O)N(C)[C@@H](CCCC)C(=O)N[C@@H](CCCNC(=N)N)C(=O)N[C@H](C(=O)NCC(N)=O)CSCC(=O)N[C@@H](Cc2ccccc2)C(=O)N(C)[C@@H](C)C(=O)N[C@@H](CC(N)=O)C(=O)N2CCC[C@H]2C(=O)N[C@@H](Cc2c[nH]cn2)C(=O)N[C@@H](CC(C)C)C(=O)N(C)CC(=O)N[C@@H](Cc2c[nH]c3ccccc23)C(=O)N[C@@H](CO)C(=O)N[C@@H](C)C(=O)N1C
B4: Compound No. 7 (peptide)
peptide: {CH2CO}-F[Sar]NPHL[Sar]WSW[NMeNle][NMeNle]RCG-NH2
modifications: thioether N-14
SMILES: CCCC[C@H]1C(=O)N(C)[C@@H](CCCC)C(=O)N[C@@H](CCCNC(=N)N)C(=O)N[C@H](C(=O)NCC(N)=O)CSCC(=O)N[C@@H](Cc2ccccc2)C(=O)N(C)CC(=O)N[C@@H](CC(N)=O)C(=O)N2CCC[C@H]2C(=O)N[C@@H](Cc2c[nH]cn2)C(=O)N[C@@H](CC(C)C)C(=O)N(C)CC(=O)N[C@@H](Cc2c[nH]c3ccccc23)C(=O)N[C@@H](CO)C(=O)N[C@@H](Cc2c[nH]c3ccccc23)C(=O)N1C
B5: Compound No. 25 (peptide)
peptide: {CH2CO}-W[NMeA]NPHL[Sar]WSW[NMeNle][NMeNle]RCG-NH2
modifications: thioether N-14
SMILES: CCCC[C@H]1C(=O)N(C)[C@@H](CCCC)C(=O)N[C@@H](CCCNC(=N)N)C(=O)N[C@H](C(=O)NCC(N)=O)CSCC(=O)N[C@@H](Cc2c[nH]c3ccccc23)C(=O)N(C)[C@@H](C)C(=O)N[C@@H](CC(N)=O)C(=O)N2CCC[C@H]2C(=O)N[C@@H](Cc2c[nH]cn2)C(=O)N[C@@H](CC(C)C)C(=O)N(C)CC(=O)N[C@@H](Cc2c[nH]c3ccccc23)C(=O)N[C@@H](CO)C(=O)N[C@@H](Cc2c[nH]c3ccccc23)C(=O)N1C
B6: Compound No. 13 (peptide)
peptide: {CH2CO}-F[NMeA]NPHL[NMeA]WSW[NMeNle][NMeNle]RCG-NH2
modifications: thioether N-14
SMILES: CCCC[C@H]1C(=O)N(C)[C@@H](CCCC)C(=O)N[C@@H](CCCNC(=N)N)C(=O)N[C@H](C(=O)NCC(N)=O)CSCC(=O)N[C@@H](Cc2ccccc2)C(=O)N(C)[C@@H](C)C(=O)N[C@@H](CC(N)=O)C(=O)N2CCC[C@H]2C(=O)N[C@@H](Cc2c[nH]cn2)C(=O)N[C@@H](CC(C)C)C(=O)N(C)[C@@H](C)C(=O)N[C@@H](Cc2c[nH]c3ccccc23)C(=O)N[C@@H](CO)C(=O)N[C@@H](Cc2c[nH]c3ccccc23)C(=O)N1C
B7: Compound No. 30 (peptide)
peptide: {CH2CO}-Y[NMeA]NPHL[Sar]WSW[NMeNle][NMeNle]RCG-NH2
modifications: thioether N-14
SMILES: CCCC[C@H]1C(=O)N(C)[C@@H](CCCC)C(=O)N[C@@H](CCCNC(=N)N)C(=O)N[C@H](C(=O)NCC(N)=O)CSCC(=O)N[C@@H](Cc2ccc(O)cc2)C(=O)N(C)[C@@H](C)C(=O)N[C@@H](CC(N)=O)C(=O)N2CCC[C@H]2C(=O)N[C@@H](Cc2c[nH]cn2)C(=O)N[C@@H](CC(C)C)C(=O)N(C)CC(=O)N[C@@H](Cc2c[nH]c3ccccc23)C(=O)N[C@@H](CO)C(=O)N[C@@H](Cc2c[nH]c3ccccc23)C(=O)N1C
B8: Compound No. 16 (peptide)
peptide: {CH2CO}-F[NMeA]NPHL[Sar]WAW[NMeNle][NMeNle]RCG-NH2
modifications: thioether N-14
SMILES: CCCC[C@H]1C(=O)N(C)[C@@H](CCCC)C(=O)N[C@@H](CCCNC(=N)N)C(=O)N[C@H](C(=O)NCC(N)=O)CSCC(=O)N[C@@H](Cc2ccccc2)C(=O)N(C)[C@@H](C)C(=O)N[C@@H](CC(N)=O)C(=O)N2CCC[C@H]2C(=O)N[C@@H](Cc2c[nH]cn2)C(=O)N[C@@H](CC(C)C)C(=O)N(C)CC(=O)N[C@@H](Cc2c[nH]c3ccccc23)C(=O)N[C@@H](C)C(=O)N[C@@H](Cc2c[nH]c3ccccc23)C(=O)N1C
B9: Compound No. 10 (peptide)
peptide: {CH2CO}-F[NMeA]NPAL[Sar]WSW[NMeNle][NMeNle]RCG-NH2
modifications: thioether N-14
SMILES: CCCC[C@H]1C(=O)N(C)[C@@H](CCCC)C(=O)N[C@@H](CCCNC(=N)N)C(=O)N[C@H](C(=O)NCC(N)=O)CSCC(=O)N[C@@H](Cc2ccccc2)C(=O)N(C)[C@@H](C)C(=O)N[C@@H](CC(N)=O)C(=O)N2CCC[C@H]2C(=O)N[C@@H](C)C(=O)N[C@@H](CC(C)C)C(=O)N(C)CC(=O)N[C@@H](Cc2c[nH]c3ccccc23)C(=O)N[C@@H](CO)C(=O)N[C@@H](Cc2c[nH]c3ccccc23)C(=O)N1C
B10: Compound No. 14 (peptide)
peptide: {CH2CO}-F[NMeA]NPHL[dNMeA]WSW[NMeNle][NMeNle]RCG-NH2
modifications: thioether N-14
SMILES: CCCC[C@H]1C(=O)N(C)[C@@H](CCCC)C(=O)N[C@@H](CCCNC(=N)N)C(=O)N[C@H](C(=O)NCC(N)=O)CSCC(=O)N[C@@H](Cc2ccccc2)C(=O)N(C)[C@@H](C)C(=O)N[C@@H](CC(N)=O)C(=O)N2CCC[C@H]2C(=O)N[C@@H](Cc2c[nH]cn2)C(=O)N[C@@H](CC(C)C)C(=O)N(C)[C@H](C)C(=O)N[C@@H](Cc2c[nH]c3ccccc23)C(=O)N[C@@H](CO)C(=O)N[C@@H](Cc2c[nH]c3ccccc23)C(=O)N1C
B11: Compound No. 22 (peptide)
peptide: {CH2CO}-F[NMeA]NPHL[Sar]WSW[NMeNle][NMeNle]ACG-NH2
modifications: thioether N-14
SMILES: CCCC[C@H]1C(=O)N(C)[C@@H](CCCC)C(=O)N[C@@H](C)C(=O)N[C@H](C(=O)NCC(N)=O)CSCC(=O)N[C@@H](Cc2ccccc2)C(=O)N(C)[C@@H](C)C(=O)N[C@@H](CC(N)=O)C(=O)N2CCC[C@H]2C(=O)N[C@@H](Cc2c[nH]cn2)C(=O)N[C@@H](CC(C)C)C(=O)N(C)CC(=O)N[C@@H](Cc2c[nH]c3ccccc23)C(=O)N[C@@H](CO)C(=O)N[C@@H](Cc2c[nH]c3ccccc23)C(=O)N1C
B12: Compound No. 11 (peptide)
peptide: {CH2CO}-F[NMeA]NPHA[Sar]WSW[NMeNle][NMeNle]RCG-NH2
modifications: thioether N-14
SMILES: CCCC[C@H]1C(=O)N(C)[C@@H](CCCC)C(=O)N[C@@H](CCCNC(=N)N)C(=O)N[C@H](C(=O)NCC(N)=O)CSCC(=O)N[C@@H](Cc2ccccc2)C(=O)N(C)[C@@H](C)C(=O)N[C@@H](CC(N)=O)C(=O)N2CCC[C@H]2C(=O)N[C@@H](Cc2c[nH]cn2)C(=O)N[C@@H](C)C(=O)N(C)CC(=O)N[C@@H](Cc2c[nH]c3ccccc23)C(=O)N[C@@H](CO)C(=O)N[C@@H](Cc2c[nH]c3ccccc23)C(=O)N1C
B13: Compound No. 8 (peptide)
peptide: {CH2CO}-F[NMeA]APHL[Sar]WSW[NMeNle][NMeNle]RCG-NH2
modifications: thioether N-14
SMILES: CCCC[C@H]1C(=O)N(C)[C@@H](CCCC)C(=O)N[C@@H](CCCNC(=N)N)C(=O)N[C@H](C(=O)NCC(N)=O)CSCC(=O)N[C@@H](Cc2ccccc2)C(=O)N(C)[C@@H](C)C(=O)N[C@@H](C)C(=O)N2CCC[C@H]2C(=O)N[C@@H](Cc2c[nH]cn2)C(=O)N[C@@H](CC(C)C)C(=O)N(C)CC(=O)N[C@@H](Cc2c[nH]c3ccccc23)C(=O)N[C@@H](CO)C(=O)N[C@@H](Cc2c[nH]c3ccccc23)C(=O)N1C
B14: Compound No. 50 (peptide)
peptide: {CH2CO}-F[NMeA]N[Aze]HL[Sar]WSW[NMeNle][NMeNle]RCG-NH2
modifications: thioether N-14
SMILES: CCCC[C@H]1C(=O)N(C)[C@@H](CCCC)C(=O)N[C@@H](CCCNC(=N)N)C(=O)N[C@H](C(=O)NCC(N)=O)CSCC(=O)N[C@@H](Cc2ccccc2)C(=O)N(C)[C@@H](C)C(=O)N[C@@H](CC(N)=O)C(=O)N2CC[C@H]2C(=O)N[C@@H](Cc2c[nH]cn2)C(=O)N[C@@H](CC(C)C)C(=O)N(C)CC(=O)N[C@@H](Cc2c[nH]c3ccccc23)C(=O)N[C@@H](CO)C(=O)N[C@@H](Cc2c[nH]c3ccccc23)C(=O)N1C

Biological target: T1, hPDL1(19-239)-TVMV-His (human, UniProt Q9NZQ7 19-239)
T1 construct: The text says amino acids 18-239, the construct name says 19-239; Expressed in HEK293T cells; Used at 10 nM final in the HTRF assay; also called PD-L1-His; PD-L1-TVMV-His
Test: HTRF competition, PD-1-Ig binding to PD-L1-His
Description: All binding studies were performed in an HTRF assay buffer consisting of dPBS supplemented with 0.1% (w/v) bovine serum albumin and 0.05% (v/v) Tween-20. […] PD-L1 fusion proteins from either human, cynomologous macaques, or mouse were used. HTRF detection was achieved using europium crypate-labeled anti-Ig monoclonal antibody (1 nM final) and allophycocyanin (APC) labeled anti-His monoclonal antibody (20 nM final). Antibodies were diluted in HTRF detection buffer and 5 μl was dispensed on top of binding reaction. The reaction was allowed to equilibrate for 30 minutes and signal (665 nm/620 nm ratio) was obtained using an EnVision fluorometer. […]
HTRF Experiments were performed essentially as outlined supra. Variant macrocyclic peptides were created as outlined herein.

T1 sequence (Q9NZQ7 other isoform, or with tags, fused parts or gaps limits assumed): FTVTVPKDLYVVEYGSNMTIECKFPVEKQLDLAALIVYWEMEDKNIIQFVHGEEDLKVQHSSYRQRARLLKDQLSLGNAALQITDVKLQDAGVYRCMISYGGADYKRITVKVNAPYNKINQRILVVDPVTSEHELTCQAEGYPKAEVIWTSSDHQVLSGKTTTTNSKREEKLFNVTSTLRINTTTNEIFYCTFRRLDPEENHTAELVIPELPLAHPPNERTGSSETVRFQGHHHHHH

| IC50 | Binder |
| --- | --- |
| 34 nM | B1 |
| 6500 nM | B2 |
| 7540 nM | B3 |
| 55 nM | B4 |
| 27 nM | B5 |
| 16 nM | B6 |
| 5 nM | B7 |
| 5 nM | B8 |
| 16 nM | B9 |
| 59 nM | B10 |
| 3 nM | B11 |
| 31 nM | B12 |
| 31 nM | B13 |
| 71 nM | B14 |
